Biological target: TLR5

FliC180 protein of S. Typhimurium (Phase I FliC flagellar antigen with the ΔfliC180 deletion) (from UniProt P06179) (ligand)
NF-κB production (% higher than the FliC+ strain): 50

Source: patent publication US20150056232A1
